In paper PMC12562645, “Enhancement of Activity of Thermophilic Inorganic Pyrophosphatase Ton1914 via Site-Directed Mutagenesis” (Biomolecules, 2025):

substrate: O=P(O)(O)OP(=O)(O)O; test: purified protein; type: biochemical, Thermococcus onnurineus; details: Mg2+, 90 °C, pH 9, pyrophosphate 0.05–1.0 mM, unit mM doubtful (M would fit the substrate range)

| Protein | Km |
| --- | --- |
| Ton1914 (Thermococcus onnurineus NA1) (protein, pET28a-Ton1914 expressed in E. coli BL21(DE3); heat-treated (80 °C) supernatant concentrated by ultrafiltration) MNPFHELEPGPEVPEVVYALIEIPKGSRNKYELDKKTGLLKLDRVLYSPFFYPVDYGIIPQTWYDDGDPFDIMVIMREPVYPLTIVEARPIGIMKMEDSGDKDWKVLAVPVEDPYFNDWKDIDDVPKAFLDEIAHFFQRYKELQGKVTTVEGWGTAEEAKREILRAIEMYKEKFGKKE | 3.03 ± 0.18 × 10^−4 mM |
| Ton1914 (Thermococcus onnurineus NA1; L42F) (protein, pET28a-Ton1914 expressed in E. coli BL21(DE3); heat-treated (80 °C) supernatant concentrated by ultrafiltration) MNPFHELEPGPEVPEVVYALIEIPKGSRNKYELDKKTGLLKFDRVLYSPFFYPVDYGIIPQTWYDDGDPFDIMVIMREPVYPLTIVEARPIGIMKMEDSGDKDWKVLAVPVEDPYFNDWKDIDDVPKAFLDEIAHFFQRYKELQGKVTTVEGWGTAEEAKREILRAIEMYKEKFGKKE | 3.18 ± 0.05 × 10^−4 mM |
| Ton1914 (Thermococcus onnurineus NA1; E97Y) (protein, pET28a-Ton1914 expressed in E. coli BL21(DE3); heat-treated (80 °C) supernatant concentrated by ultrafiltration) MNPFHELEPGPEVPEVVYALIEIPKGSRNKYELDKKTGLLKLDRVLYSPFFYPVDYGIIPQTWYDDGDPFDIMVIMREPVYPLTIVEARPIGIMKMYDSGDKDWKVLAVPVEDPYFNDWKDIDDVPKAFLDEIAHFFQRYKELQGKVTTVEGWGTAEEAKREILRAIEMYKEKFGKKE | 5.94 ± 0.14 × 10^−4 mM |
| Ton1914 (Thermococcus onnurineus NA1; D101K) (protein, pET28a-Ton1914 expressed in E. coli BL21(DE3); heat-treated (80 °C) supernatant concentrated by ultrafiltration) MNPFHELEPGPEVPEVVYALIEIPKGSRNKYELDKKTGLLKLDRVLYSPFFYPVDYGIIPQTWYDDGDPFDIMVIMREPVYPLTIVEARPIGIMKMEDSGKKDWKVLAVPVEDPYFNDWKDIDDVPKAFLDEIAHFFQRYKELQGKVTTVEGWGTAEEAKREILRAIEMYKEKFGKKE | 1.03 ± 0.04 × 10^−4 mM |
| Ton1914 (Thermococcus onnurineus NA1; E97Y/L42F) (protein, pET28a-Ton1914 expressed in E. coli BL21(DE3); heat-treated (80 °C) supernatant concentrated by ultrafiltration) MNPFHELEPGPEVPEVVYALIEIPKGSRNKYELDKKTGLLKFDRVLYSPFFYPVDYGIIPQTWYDDGDPFDIMVIMREPVYPLTIVEARPIGIMKMYDSGDKDWKVLAVPVEDPYFNDWKDIDDVPKAFLDEIAHFFQRYKELQGKVTTVEGWGTAEEAKREILRAIEMYKEKFGKKE | 8.49 ± 0.30 × 10^−4 mM |
| Ton1914 (Thermococcus onnurineus NA1; D101K/L42F) (protein, pET28a-Ton1914 expressed in E. coli BL21(DE3); heat-treated (80 °C) supernatant concentrated by ultrafiltration) MNPFHELEPGPEVPEVVYALIEIPKGSRNKYELDKKTGLLKFDRVLYSPFFYPVDYGIIPQTWYDDGDPFDIMVIMREPVYPLTIVEARPIGIMKMEDSGKKDWKVLAVPVEDPYFNDWKDIDDVPKAFLDEIAHFFQRYKELQGKVTTVEGWGTAEEAKREILRAIEMYKEKFGKKE | 6.34 ± 0.82 × 10^−4 mM |
| Ton1914 (Thermococcus onnurineus NA1; D101K/E97Y) (protein, pET28a-Ton1914 expressed in E. coli BL21(DE3); heat-treated (80 °C) supernatant concentrated by ultrafiltration) MNPFHELEPGPEVPEVVYALIEIPKGSRNKYELDKKTGLLKLDRVLYSPFFYPVDYGIIPQTWYDDGDPFDIMVIMREPVYPLTIVEARPIGIMKMYDSGKKDWKVLAVPVEDPYFNDWKDIDDVPKAFLDEIAHFFQRYKELQGKVTTVEGWGTAEEAKREILRAIEMYKEKFGKKE | 3.48 ± 0.27 × 10^−4 mM |
